{
  "source": "paper PMC6921046",
  "about": "“Functional Characterization and Structural Analysis of NADH Oxidase Mutants from Thermus thermophilus HB27: Role of Residues 166, 174, and 194 in the Catalytic Properties and Thermostability” (Microorganisms, 2019)",
  "proteins": {"B1": {"name": "Tt27-NOX (Thermus thermophilus HB27; H194Y) (protein)", "chain": "MEATLPVLDAKTAALKRRSIRRYRKDPVPEGLLREILEAALRAPSAWNLQPWRIVVVRDPATKRALREAAFGQAHVEEAPVVLVLYADLEDALAHLDEVIHPGVQGERREAQKQAIQRAFAAMGQEARKAWASGQSYILLGYLLLLLEAYGLGSVPMLGFDPERVKAILGLPSHAAIPALVALGYPAEEGYPSYRLPLERVVLWR", "notes": "Recombinant, pET22b, E. coli BL21(DE3), heat shock plus PEI-Ag/DS-Ag; homodimer, ~27 kDa monomer"}, "B2": {"name": "R166/R174/H194 variant (Tt8-NOX variant) (Thermus thermophilus HB8; H174R) (protein)", "chain": "B1 chain with K166R, H174R, Y194H", "notes": "pET22b, E. coli BL21(DE3); homodimer, ~27 kDa monomer"}, "B3": {"name": "Tt27-NOX (Thermus thermophilus HB27; H194Y/K166R) (protein)", "chain": "B1 chain with K166R", "notes": "as for B1"}, "B4": {"name": "Tt27-NOX (Thermus thermophilus HB27; H174R/H194Y) (protein)", "chain": "B1 chain with H174R", "notes": "as for B1"}},
  "assay_in_all_cases": "purified protein",
  "key": {"[1]": {"substrate": "Cc1cc2nc3c(=O)[nH]c(=O)nc-3n(C[C@H](O)[C@H](O)[C@H](O)CO)c2cc1C", "details": "10 µM NADH, pH 7, 25 °C, exogenous flavin, varied: cofactor"}, "[2]": {"substrate": "Cc1cc2nc3c(=O)[nH]c(=O)nc-3n(C[C@H](O)[C@H](O)[C@H](O)COP(=O)(O)O)c2cc1C", "type": "biochemical, Thermus thermophilus", "details": "10 µM NADH, pH 7, 25 °C, exogenous flavin, varied: cofactor"}, "[3]": {"substrate": "NC(=O)C1=CN([C@@H]2O[C@H](COP(=O)(O)OP(=O)(O)OC[C@H]3O[C@@H](n4cnc5c(N)ncnc54)[C@H](O)[C@@H]3O)[C@@H](O)[C@H]2O)C=CC1", "type": "biochemical, Thermus thermophilus", "details": "50 µM FAD, pH 7, 25 °C"}, "[4]": {"substrate": "Cc1cc2nc3c(=O)[nH]c(=O)nc-3n(C[C@H](O)[C@H](O)[C@H](O)COP(=O)(O)OP(=O)(O)OC[C@H]3O[C@@H](n4cnc5c(N)ncnc54)[C@H](O)[C@@H]3O)c2cc1C", "type": "biochemical, Thermus thermophilus", "details": "10 µM NADH, pH 7, 25 °C, exogenous flavin, varied: cofactor"}, "[5]": {"details": "authors' cloned wild type, apparent"}, "[6]": {"details": "authors' cloned wild type K166/H174/Y194, apparent"}},
  "note": "Positions count from the first letter of the chain named. Numbers in names are those of the source.",
  "data": [
    {"protein": "B1", "values": [
      {"measurement": "Km", "setting": "[1]; K166/H174/H194, apparent", "result": "68.7 ± 3.4", "unit": "µM"},
      {"measurement": "Km", "setting": "[1]; [5]", "result": "69.7 ± 3.5", "unit": "µM"},
      {"measurement": "Km", "setting": "[2]; K166/H174/H194, apparent", "result": "45 ± 2.3", "unit": "µM"},
      {"measurement": "Km", "setting": "[2]; [5]", "result": "43 ± 2.2", "unit": "µM"},
      {"measurement": "Km", "setting": "[3]; K166/H174/H194, apparent", "result": "1.3 ± 0.06", "unit": "µM"},
      {"measurement": "kcat", "setting": "[3]; K166/H174/H194, apparent", "result": "27.2 ± 1.4", "unit": "s⁻¹"},
      {"measurement": "kcat/Km", "setting": "[3]; K166/H174/H194, apparent", "result": "2.1e+07 ± 1.1e+06", "unit": "M⁻¹ s⁻¹"},
      {"measurement": "Km", "setting": "[3]; [6]", "result": "1.6 ± 0.1", "unit": "µM"},
      {"measurement": "kcat", "setting": "[3]; [6]", "result": "23.3 ± 1.2", "unit": "s⁻¹"},
      {"measurement": "kcat/Km", "setting": "[3]; [6]", "result": "1.46e+07 ± 70000", "unit": "M⁻¹ s⁻¹"},
      {"measurement": "Km", "setting": "[4]; K166/H174/H194, apparent", "result": "46 ± 2.3", "unit": "µM"},
      {"measurement": "Km", "setting": "[4]; [5]", "result": "34 ± 1.7", "unit": "µM"}
    ]},
    {"protein": "B2", "values": [
      {"measurement": "Km", "setting": "[1]; R166/R174/H194, apparent", "result": "50.8 ± 2.6", "unit": "µM"},
      {"measurement": "Km", "setting": "[2]; R166/R174/H194, apparent", "result": "23.6 ± 1", "unit": "µM"},
      {"measurement": "Km", "setting": "[3]; R166/R174/H194, apparent", "result": "1.8 ± 0.1", "unit": "µM"},
      {"measurement": "kcat", "setting": "[3]; R166/R174/H194, apparent", "result": "15.1 ± 0.8", "unit": "s⁻¹"},
      {"measurement": "kcat/Km", "setting": "[3]; R166/R174/H194, apparent", "result": "8.4e+06 ± 420000", "unit": "M⁻¹ s⁻¹"},
      {"measurement": "Km", "setting": "[4]; R166/R174/H194, apparent", "result": "31.9 ± 1.4", "unit": "µM"}
    ]},
    {"protein": "B3", "values": [
      {"measurement": "Km", "setting": "[2]; R166/H174/Y194, apparent", "result": "27 ± 1.4", "unit": "µM"},
      {"measurement": "Km", "setting": "[4]; R166/H174/Y194, apparent", "result": "30 ± 1.5", "unit": "µM"}
    ]},
    {"protein": "B4", "values": [
      {"measurement": "Km", "setting": "[1]; K166/R174/Y194, apparent", "result": "60 ± 3", "unit": "µM"},
      {"measurement": "Km", "setting": "[2]; K166/R174/Y194, apparent", "result": "15 ± 0.8", "unit": "µM"},
      {"measurement": "Km", "setting": "[3]; K166/R174/Y194, apparent", "result": "1.9 ± 0.1", "unit": "µM"},
      {"measurement": "kcat", "setting": "[3]; K166/R174/Y194, apparent", "result": "8.6 ± 0.4", "unit": "s⁻¹"},
      {"measurement": "kcat/Km", "setting": "[3]; K166/R174/Y194, apparent", "result": "4.5e+06 ± 220000", "unit": "M⁻¹ s⁻¹"},
      {"measurement": "Km", "setting": "[4]; K166/R174/Y194, apparent", "result": "127 ± 6.4", "unit": "µM"}
    ]}
  ]
}
